Tests used:
[1] = test system: sperm-zona pellucida binding; experiment: Hemizona assay (HZA), competitive inhibition of sperm-zona binding, first series; assay type: cell-based, human
Description: An inverted, phase-contrast microscope equipped with a micromanipulation system was routinely employed to cut the oocyte into halves to obtain matching hemizonae. Oocytes used in the experiments were obtained from surgically-removed ovarian tissue or discarded from IVF therapy under approval of the Institutional Review Board at Eastern Virginia Medical School. The hemizonae were washed in PBS to completely deplete the cytoplasm. Sperm samples were from healthy fertile donors. A swim-up procedure was applied to obtain motile sperm, which were then adjusted to 0.5 million/ml in Human Tubal Fluid (HTF) supplemented with 0.3% Human Serum Albumin (HSA) for hemizona assay. In one Petri dish, one droplet of 100 ul of sperm suspension was placed as a control. Another droplet of sperm was pre-treated with rhZP3. One hemizona was placed into the control droplet and the matching hemizona was placed in the sperm droplet treated with rhZP3. Five pairs of hemizona were used for each experiment. All dishes were incubated at 37° C., 5% CO2 for 4 hours. Each hemizona was removed and rinsed 15 times in PBS, and transferred to the counting dish. The number of sperm bound to the surface of each hemizona was counted under phase microscopy. The HZI was calculated to evaluate rhZP3-binding activity (competitive inhibition) as follows: number of sperm bound for treatment/number of sperm bound for control×100.

[2] = test system: human sperm; experiment: Acrosome reaction of capacitated sperm by FITC/PSA with Hoechst 33258 viability stain, first series; assay type: cell-based
Method: The purified rhZP3 was also applied to test its activity to induce human sperm acrosome reaction. The motile sperm obtained by swim-up procedure were allowed to capacitate in HTF/0.5% HSA for four hours at 37° C. in 5% CO2 in huminified air. The motile sperm concentration used to detect acrosome reaction was set at 2 million/ml. A series of 100 ul of capacitated sperm aliquots with different inducers were prepared in Eppendorf vials and cultured in the incubator in 95% air, 5% CO2, at 37° C. for 30 minutes. The test was conducted as follows: positive control: calcium ionophore A23187 (Sigma) at 5 μM; negative controls: 1) sperm culture medium alone, and 2) protein isolated from the culture media of non-transfected PA-1 cells (NT); test: rhZP3. Triple slides were made for each assay. Hoechst 33258 stain was used for determination of sperm viability. Fluorescein isothiocyanate conjugated Pisum sativum agglutinin (FITC/PSA) (Sigma) staining technique was employed to evaluate the acrosome reaction (Cross et al, 1986). Blind reading was required for evaluation and at least 100˜200 cells from 5 random fields were evaluated per spot on the slide. […] The results were expressed as percentage of acrosome-reacted spermatozoa in the total population counted (Cross, 1986).
In some experiments, Solubilized zona pellucida were used as control to test its function to induce sperm acrosome reaction. The solubilized zona pellucida were prepared according to Franken et al (1996). Ooplasma was removed using a small glass micropipette. A vigorous pipetting action would break their zona causing ooplasma to be spilled into surrounding medium. The chosen amount of zonae was transferred into an eppendorf tube and was centrifuged for 15 minutes at 300×g. Using a steromicroscope, the media were removed with pipette, making sure not to disturb zona. The final result was to remove maximum medium. A chosen volume (depending on the zona concentration needed) of 10 mM HCl was added. Under the microscopic vision, zona/HCl was pipetted up and down until all zona were dissolved. Then 10 mM NaOH of equal volume as the HCl was added and mixed well to obtain the stock zona solution.

[3] = test system: human sperm; experiment: Acrosome reaction of live sperm by FITC-PSA, second series; assay type: cell-based
Method: Determination of the acrosome reaction—The proportion of live acrosome-reacted spermatozoa incubated under capacitating conditions was determined with the fluorescent probe fluorescein isothiocyanate-labeled Pisum Sativum Agglutinin (FITC-PSA, Sigma) after staining with a supravital stain (Hoechst 33258, Sigma) following established techniques (12,13). At least 200 sperm per sample were evaluated in duplicate at 600× magnification using an epifluorescence microscope equipped with phase-contrast optics (Optiphot; Nikon, Melville, N.Y.). Slides were coded and read in a blind fashion.
A calcium ionophore agent (A23187, Sigma) tested at 5 μM and human acid solubilized zona pellucida tested at a final concentration of 4 zona/10 μl were used as positive controls (20). In further experiments, the acrosomal status was assessed by transmission electron microscopy. Spermatozoa were fixed by mixing sperm suspensions with equal volumes of 2% (v/v) glutaraldehyde (in 3 mM CaCl2 and 0.1 M sodium cacodylate); thereafter, samples were dehydrated twice and prepared for thin sectioning using previously published procedures. Ultrastructural examination was performed with a transmission electron microscope (Jeol JEM-1200 EX II, Peabody, Mass.).
Experiment 2: Characterization of the acrosome reaction inducing activity of the rhZP3 in dose- and sperm capacitation-dependency studies—Motile sperm fractions from 29 ejaculates of 11 different donors were incubated under capacitating conditions for 3 hours and assayed for acrosome reaction using FITC-PSA. Following swim-up, sperm aliquots were pre-incubated for 30 minutes with rhZP3 (30 ng/ml), A23187 (positive control), culture medium from non-transfected PA-cells (NT) or sperm culture medium (negative controls). This was the initially selected dose of rhZP3 to be tested as it had proven to effect significant inhibition of sperm-zona binding in the HZA.
The dose-dependent effect of rhZP3 on acrosome reaction was examined in the swim-up fractions obtained from four different donors. The fractions were capacitated for 3 hours and exposed for 30 min to rhZP3 at final concentrations of 0, 7.5, 15, 30, 60, 120, 240, 480, 960 and 1920 ng/ml. The capacitation-dependency of the acrosome reaction-inducing activity of rhZP3 was assessed in the swim-up fractions of four ejaculates from four different donors. Capacitation times included: 0 (immediately post-swim-up), 1, 4, 8, 12 and 24 hours. After the capacitation period, rhZP3 was added to the sperm suspension at a final concentration of 30 ng/ml.
In another set of experiments, three different ejaculates were used to compare the effects of the rhZP3 (tested at 500 ng/ml) with those of solubilized zonae pellucidae and the calcium ionophore. Further, the induction of the acrosome reaction was assessed in parallel with FITC-PSA and transmission electron microscopy. The goal of these studies was to compare the morphological features of the acrosome reaction between agonists and also between the agonist-induced and basal exocytosis rates.

[4] = test system: sperm
Method: Semen samples and sperm capacitation—Semen was collected by masturbation by healthy, fertile men (donors). Sperm motion parameters (% progressive motility, curvilinear and straight-line velocities, amplitude of lateral head displacement and linearity) were assessed with a computer analyzer (HTM-IVOS; Hamilton-Thorn Research, Danvers, NA). […] After liquefaction, samples were washed twice in Ham's F-10 (Gibco Lab., Grand Island, N.Y.) supplemented with 0.5% human serum albumin (HSA; Irvine Sci., Santa Ana, Calif.). The final undisturbed pellet was gently over layered with 1 ml of the culture medium and the specimen was incubated for 1 hour at 37° C. in 5% CO2 in humidified air to achieve separation of the highly motile sperm fractions by swim-up. Thereafter, aliquots were incubated under capacitating conditions (in Ham's F-10 plus 0.5% HSA at 37° C. in 5% CO2 in humidified air) for various periods of time according to the experimental design.

[5] = test system: sperm-zona pellucida binding; conditions: Dong et al 2000; cited from earlier work
[6] = test system: human sperm; conditions: Dong et al 2000; cited from earlier work

B1: rhZP3: recombinant human zona pellucida protein 3 with six-histidine tail, expressed in human ovarian PA-1 cells; secreted glycoprotein of approximately 65 Kd (protein)
chain: QPLWLLQGGASHPETSVQPVLVECQEATLMVMVSKDLFGTGKLIRAADLTLGPEACEPLVSMDTEDVVRFEVGLHECGNSMQVTDDALVYSTFLLHDPRPVGNLSIVRTNRAEIPIECRYPRQGNVSSQAILPTWLPFRTTVFSEEKLTFSLRLMEENWNAEKRSPTFHLGDAAHLQAEIHTGSHVPLRLFVDHCVATPTPDQNASPYHTIVDFHGCLVDGLTDASSAFKVPRPGPDTLQFTVDVFHFANDSRNMIYITCHLKVTLAEQDPDELNKACSFSKPSNSWFPVEGSADICQCCNKGDCGTPSHSRRQPHVMSQWSRSASRNHHHHHH
Question: With B1 as the molecule, how does the “inhibition of sperm-ZP binding” value ([1]; 30 ng/ml, sperm pre-incubated 30 min) read?
Answer: Its value is “approximately 60%”.

Question: And the “HZI (Mean ± SEM)” value ([1]; test reagent 30 ng/ml versus control 30 ng/ml NT)?
Answer: The value was 44.5 (3.6).

Question: And the “HZI (Mean ± SEM)” value ([1]; test reagent 30 ng/ml versus control HTF/0.5% HSA, 30 min pre-incubation, 4 h with hemizona)?
Answer: Its value is 43.6 (3.3).

Question: And the “increase of the percentage of acrosome-reacted sperm from control conditions” value ([2]; 30 ng/ml, 30 minutes pre-incubation)?
Answer: The value was 150%.

Question: What about the “% acrosome reacted-sperm” value ([2]; NT 30 ng/ml, calcium ionophore 5 μM, rhZP3 30 ng/ml, solubilized zona 0.5 ZP/μl, 4 h capacitation, 30 min, mean (± SEM)) of the same molecule?
Answer: The value was 18.3%.

Question: What about the “concentration of highest acrosome reaction-inducing activity” value [3] of the same molecule?
Answer: Its value is 0.5 to 2 µg/mL.

Question: What about the “concentration range of highest stimulation (maximal effects) of acrosome reaction” value [3] of the same molecule?
Answer: Its value is 500-2,000 ng/ml.

Question: And the “potency relative to CHO cell product” value ([3]; 0.5-2 μg/ml versus 15-20 μg/ml)?
Answer: The value was “at least 10 times”.

Question: And the “minimally effective dose, induction of the acrosome reaction” value ([3]; 3 h capacitation, 30 min exposure)?
Answer: The value was 30 ng/mL.

Question: What about the “highest stimulation of acrosome reaction, increase from baseline conditions” value ([3]; in the range of 500-2,000 ng/ml) of the same molecule?
Answer: The value was “approximately 210%”.

Question: What about the “capacitation time of maximal stimulation of acrosome reaction” value ([3]; rhZP3 30 ng/ml) of the same molecule?
Answer: Its value is 8 to 10 h.

Question: What about the “live, acrosome reacted sperm” value ([3]; rhZP3 30 ng/ml, A23187 5 μM, 3 h capacitation, 30 min exposure) of the same molecule?
Answer: The value was 19±4.1%.

Question: And the “induction of the acrosome reaction” value ([3]; rhZP3 500 ng/ml, solubilized zona 4 zona/10 μl, A23187 5 μM)?
Answer: The value was 28.2±5.6%.

Question: What about the “sperm motion parameters, treatment versus control” value [4] of the same molecule?
Answer: The value was “not significantly different”.

Question: What about the “range of maximal effect, ligand activity” value [5] of the same molecule?
Answer: The value was 30-1,000 ng/ml.

Question: And the “range of maximal effect, acrosome reaction-inducing activity” value [6]?
Answer: Its value is 30-1,000 ng/ml.
